# The supplement of paper PMC7125110
# ± gives the standard error. This sample holds only a part of the variants without activity.
# B1: glmS ribozyme (parent)
# chain: AUAAAAGCGCCAGAACUACAGAAAUGUAGUUGACGAGGAGGAGGUUUAUCGAAUUUUCGGCGGAUGCCUCCAAA
# Variants of: B1
# Experiment: self-cleavage kobs at 2500 uM GlcN6P; higher = faster cleavage; RNA array
# Conditions: with glucosamine-6-phosphate
# Summary of the method: (§1)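 The measurements used barcoded ribozyme variants on sequenced MiSeq chips, transcribed in situ by E. coli RNA polymerase and tracked at 37 °C with a hybridised Cy3 probe. Glucosamine-6-phosphate, 40 μM to 10 mM in HEPES/KCl/Mg(OAc)2 buffer, was flowed in while tiles were imaged over ~14 h. Baseline-normalised signals, also normalised to non-cleaving reference variants, gave per-tile medians that were fit to one- or two-exponential decays for kobs. kcat and KM resulted from weighted Michaelis–Menten fits across concentrations.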
row,Variant,self-cleavage kobs at 2500 uM GlcN6P [s⁻¹]
1,A14G C67G C68A,2.78e-05 ± 1.3e-05
2,A52G U57A C58G C71U,7.76e-05 ± 2.9e-05
3,A12C C16U A39U,0.00306 ± 0.00084
4,A33G U47C C61G,< 1e-05
5,G35U A48U U56G,< 1e-05
6,A52U A53U G62A U65G C71G,< 1e-05
7,C11A A52U U65C,< 1e-05
8,C16G A42G A64U G66A C68A,< 1e-05
9,G29C G32U C67A,4.32e-05 ± 2e-05
10,G9C A14G U69G,< 1e-05
11,U30G A64G C67G,6.44e-05 ± 3e-05
12,G37U G60U,< 1e-05
13,U30C G44A G66U,< 1e-05
14,G9A A36U A53G,< 1e-05
15,G7U G59A C61U,< 1e-05
16,G13A G44U A64U,< 1e-05
17,C10U G32A C70U,6.3e-05 ± 3e-05
18,C16A A52U C70G,0.0002 ± 9.8e-05
19,C11U A48C G62U,< 1e-05
20,C16G G29U A39U G51U C71U,< 1e-05
21,G44U G60U C71A,< 1e-05
22,A14G C16U A53U,0.0165 ± 0.0044
23,A15C G40U A42C,< 1e-05
24,G7A G13A C34U,< 1e-05
25,U30G U45A C58G,9.63e-05 ± 1.6e-05
26,G29C A33U G62A A64U,< 1e-05
27,G44A A48G U55A,< 1e-05

row,Variant,self-cleavage kobs at 2500 uM GlcN6P [s⁻¹]
1,U30G G35U G59U,< 1e-05
2,G13C G35U A52C,< 1e-05
3,U30G A33G A42G G43U C70A,< 1e-05
4,G41U U54G U56G G60A C70A,7.76e-05 ± 2.1e-05
5,G13A A33U A53C,< 1e-05
6,U30A A39G C70U,0.00333 ± 0.00077
7,G32C A39C C61G C70U,< 1e-05
8,C8U C16U G37C A39G U54C,< 1e-05
9,U45G U56G A64G,0.00171 ± 0.00054
10,G37U A39G C68G,< 1e-05
11,A15G U55A A64U,9.74e-05 ± 1.8e-05
12,C16U A33G U69A C70G,7.7e-05 ± 3.3e-05
13,C8A A12C C68U,< 1e-05
14,C16G U55A C67U C71A,8.06e-05 ± 2.9e-05
15,A12U C16A U46C,0.000144 ± 4.6e-05
16,G13A C34A A39G G59A G62C,< 1e-05
17,U31C G35A G66U C71A,< 1e-05
18,G7C G13U U31G G37C G59A G60U,< 1e-05
19,A14C C50A U54C,< 1e-05
20,G37A G38A A39C,< 1e-05
21,G29U A39U G59C C61A,< 1e-05
22,C11U C16U C61U,< 1e-05
23,A14C G60U C68U,< 1e-05
24,U46G A48U G59U U69C,< 1e-05
25,A12G A36C G38A A64U,< 1e-05
26,C10A G44U U49G U54C G60U C67U,< 1e-05
27,A52C G59C A64U,< 1e-05

row,Variant,self-cleavage kobs at 2500 uM GlcN6P [s⁻¹]
1,A15C G37U A39G,< 1e-05
2,C10U A42C G62A U65G C68U,< 1e-05
3,A6C A36G C61G G66A,< 1e-05
4,A12C A15G G66U C67A,0.000636 ± 0.00013
5,A14U A36U C71U,< 1e-05
6,U46G A48G U49G G59A,< 1e-05
7,C8A C58U A64U C67G,< 1e-05
8,C58A G59C C71U,< 1e-05
9,A53U U54C U57C C61G,< 1e-05
10,A6U A12C G51A,< 1e-05
11,G7U A33C G59U G60U,< 1e-05
12,G7A G41C U45C U47C,< 1e-05
13,G29A G63C C68G,0.000233 ± 6.2e-05
14,A42G A52C A53G U54G,< 1e-05
15,C16U A39U U54G,0.00743 ± 0.0018
16,C8G A52G G59A,< 1e-05
17,A6C G13A A39C C67U C70G,< 1e-05
18,C8U A14G C50U C71G,< 1e-05
19,C10A A12C U30A U31A,5.52e-05 ± 2.3e-05
20,A12U U31G U69A,0.000111 ± 4.9e-05
21,A15C A42G C70G,7.41e-05 ± 1.9e-05
22,G37A A42U A52G C71A,< 1e-05
23,A12G G63A,< 1e-05
24,C10G U56C,< 1e-05
25,G29A G38U G40A A42C,< 1e-05

# Variants of: B1
# Experiment: self-cleavage kobs at 10000 uM GlcN6P; higher = faster cleavage; RNA array
# Conditions: with glucosamine-6-phosphate
# Summary of the method: as §1
row,Variant,self-cleavage kobs at 10000 uM GlcN6P [s⁻¹]
1,G29C G32U C67A,0.00017 ± 2.6e-05
2,U30G U45A C58G,0.000163 ± 4.1e-05
3,G44A A48G U55A,< 1e-05
4,C16G U55A C67U C71A,3.71e-05 ± 1.3e-05
5,A12U C16A U46C,0.000331 ± 7.6e-05
6,A15C A42G C70G,4.12e-05 ± 1.7e-05
7,A12G G63A,< 1e-05
8,C10G U56C,< 1e-05
9,G29A G38U G40A A42C,< 1e-05
